Assay results as given in the DeepSol protein solubility set.

Test: soluble on expression in E. coli; label from the status in PepcDB or PDB records

Sequence	soluble on expression in E. coli
MKLHTLVSCLHDFPVVPKENPEITSIEADSRKVKEGSLFVCMKGYTVDSHDFAKQAAAQGAAAIVAERPIDVDVPVVLVKNTFRSLAVLADYFYGQPTHKLHLIGITGTNGKTTTSHIMDEIMRAHGHKTGLIGTINMKIGDETFEVKNTTPDALTLQQTFAKMVEHGVDSTVMEVSSHALDLGRVHGCDYDVAVFTNLTQDHLDYHKTMEEYKHAKGLLFAQLGNSYNHNREKYAVLNNDDAVTVEYMRSTAATVVTYGIDTTSDVMAKDIAMTSGGTTFTLVTPYESVNVTMKLIGKFNVYNVLAATAAGLVSGVSLETIIDVIKELAGVPGRFEVVDGGQNYTVIVDYAHTPDSLENVLKTAKQFAKGDVYCIVGCGGDRDRTKRPIMASVATQYATHAIYTSDNPRSEDPAAILDDMVHGANGNNYEVIIDRKEAIHHAITKAKADDIIIIAGKGHETYQIIGKDVHHFDDREVAKEAITERLNNEE	not soluble
MGSDKIHHHHHHMKGAAFVKKEGLKQKALEIGRVPTHLKLEIEDYGGDDKRAHFCWADPQDENTGIIVELGPDGELESLSRDIEPESGERLSEEKLEDIMRQFVETHHPGALSAFVREENDRAYGDKVRFSYVQMEAGLPLPMSGFMADVSLSGEIVYFRYYGEAGSIIKPKRVADVEEALAFIKKDVEFDLLFEVLHRSVYKNGDDQPHLVYEPEGRAITVPADLVQEEQAVDDDDDYREPESFPLPLFEGIREKADPDSMIGIENGFVKEREADLGDGRIGIVWRNPDDPVYQPADKSMDSWFKGRTHQVLKTIYNKETGKLEGVMSFMEKKGPLTVTLAECEKIALRFLFALFPNADQYFRIRYDEKDEEENAVAGFTFEAHCHGVPLRFGQIRICVSRQTGYITVYMGPDIDPNKLATIDPVPAISVEQAKSIFWQHFKVELGWEREYGDDEEHSYRLVYKPVYPHFIDAHTGEPVFSIW	not soluble
TSTMTDTVFSNSSNRWMYPSDRPLQSNDKEQLQAGWSVHPGGQPDRQRKQEELTDEEKEIINRVIARAEKMEEMEQERIGRLVDRLENMRKNVAGDGVNRCILCGEQLGMLGSACVVCEDCKKNVCTKCGVETNNRLHSVWLCKICIEQREVWKRSGAWFFKGFPKQVLPQPMPIKKTKPQQPVSEPAAPEQPAPEPKHPARAPARGDSEDRRGPGQKTGPDPASAPGRGNYGPPVRRASEARMSSSSRDSESWDHSGGAGDSSRSPAGLRRANSVQASRPAPGSVQSPAPPQPGQPGTPGGSRPGPGPAGRFPDQKPEVAPSDPGTTAPPREERTGGVGGYPAVGAREDRMSHPSGPYSQASAAAPQPAAARQPPPPEEEEEEANSYDSDEATTLGALEFSLLYDQDNSSLQCTIIKAKGLKPMDSNGLADPYVKLHLLPGASKSNKLRTKTLRNTRNPIWNETLVYHGITDEDMQRKTLRISVCDEDKFGHNEFIGETRFSLKKLKPNQRKNFNICLERVIPMKRAGTTGSARGMALYEEEQVERVGDIEERGKILVSLMYSTQQGGLIVGIIRCVHLAAMDANGYSDPFVKLWLKPDMGKKAKHKTQIKKKTLNPEFNEEFFYDIKHSDLAKKSLDISVWDYDIGKSNDYIGGCQLGISAKGERLKHWYECLKNKDKKIERWHQLQNENHVSSD	soluble
MGSDKIHHHHHHMGLPMWANGDWRGSLYARHAPSSGMLHDYGAVFGSVEGNTTFYSGPPKADTVAQWARQAPADFRFCFKLPAQLTHDKRLVGIEDDFRTFCDALAPLHDRLGPTMVQLPRDFGARELPALAAFLEKWPSDMPCAVEVRHSEFFHKGDAEQQLNRLLITLGVDRVMLDVRPLFATPAGDDARLIKAQSEKPKRPLHVISTGRMPIVRFIGHCDMEINERLFAPWCERLALWIKQGKTPFLFVHTPDNRQAPQLARRFHARLSRCVTLPPLGDFPGERQSALF	not soluble
MKPDAHHVKQFLLRLQDDICQTLSAVDGANFVEDSWRREAGGGGRSRVLRNGGIFEQAGVNFSHVHGDAMPASATAHRPELAGRSFEAMGVSLVVHPHNPYIPTSHANVRFFIAEKPGADPVWWFGGGFDLTPYYGFEEDAVHWHRTARDLCQPFGDDVYPRYKKWCDDYFFLKHRNEQRGVGGLFFDDLNTPDFDHCFDFMQAVGNGYTRAYLPIVERRKAMVWGERERNFQLYRRGRYVEFNLVWDRGTLFGLQTGGRTESILMSMPPLVRWEYDWQPEAGSPEAALSEFIQVRDWILEHHHHHH	soluble
MKDTLMSIQIIPKTPNNDNVIPYVDEAIKIIDESGMHFRVGPLETTVQGNMNECLILIQSLNERMVELECPSIISQVKFYHVPDGITIETLTEKYDELEHHHHHH	soluble
MIARGSRAPRCPQCRVIDSYCLCAWRPTVAAESGMCLLMYDTEPMKPTNTGWLIADVIKDTYAFGWSRVEIDAHLRALLDDPQWQPYIVFPGEFVAQERVVAEVAREDGKRPLFILLDATWNEARKMFRKSPYLEKFPVLSLAPEQISRYRLRRSKRDDHFCTAEVAALCLELAGDVSASGVLDAYLDVFSAHYLGAKFQRPIDPDDVAHTYLKAFILEHHHHHH	not soluble
DGYIGVMIDDLVTKGTIEPYRLLTSRAEYRLILRHDNADMRLTEMGREIGLVDDERWARFEIKKNQFDNEMKRLDSIKLKPVKETNAKVEEMGFKPLTDAVTAKEFLRRPEVSYQDVVAFIGPAAEDLDDKIIELIETEIKYEGYISKAMDQVAKMKRMEEKRIPANIDWDDIDSIATEARQKFKLINPETIGQASRISGVNPADISILMVYLEG	not soluble
GSVSMSGGFLRDDHLEFALHLHRRLAEAVPDGEVIWSPYSVACALGVLAAGARATTRTELTTLLGTDPAPLLAALDRAVTDSPDLASRTVLWVSADVPVRSSFRATMHDRPDSDVRTADFRTNPEGVRATVNADIADATRGMIRELLPQGAVTPDLRAILTNALWAKARWTTPFEAHLTRAGTFRTPRGPKRVPFMHRTKTMPYATARGWRMVTLHAHDELAVDVLLPPGTNAAAVPTAPLLTALHRRSASTSVELALPRFELTQPHQLVEVLAEAGVRTLFTASADLSGISTVPLYVDTVIHQARLRVDERGAEGAAATAAMMLLAGAMPPRRTIRFSVDRPFHIVVRRRGAILFLGSIADPHDPGPAQ	soluble
MKNVIACISSPRRVQSICDYAIWAVRRLGSELELLHVVEREQDAVPIADLSGGIWMGTQETLLKELAELDERRQQLAQEQGRQLLQAATERAREAGIQGLAGLARQGYLVDVLLELEDDARLFVMGQHDRPTKPSRLLPDQHLEAAVRALHRPVLVAG	not soluble
MAHHHHHHMGGHGGLNILPQKKWNVYRKDAQYKVHYDEHKIIKEEKDKEIKRKKDEFESTISTLKKNMTKNEDSDNNYNNFYDENGEKKTTTNYCNDHINLFIDEEKELTAKQKKHEEFLIKKGHYIYYDKNFNTQHNSIYDKNKNAQIISDFNKMKLCERDWFLNKKNKNEKTKDNGANFFHIQKDNISEEHNKTENINSDLSLYCNTNNYITHDKKKEKKQMHYHIKKIIKYKQEKDKEKKRKRQGKEKKKPK	not soluble
MSKISQQNSTPGVNGISVIHTQAHASGLQQVPQLVPAGPGGGGKAVAPSKQSKKSSPMDRNSDEYRQRRERNNMAVKKSRLKSKQKAQDTLQRVNQLKEENERLEAKIKLLTKELSVLKDLFLEHAHNLADNVQSISTENTTADGDNAGQ	soluble
QLFSNNLLQENAHKYVREVIGSIPNTQVIRDQLLEENNRKHIEVVLIGATVSPAQIDSAKTKLSSYGLSGVELNIKQGFGYEQEETDVNELKSVLLKDLYDNGEKIIRNQQRQIDSLRNVLNFYNRFSSMESEIAQELQ	not soluble
MGSDKIHHHHHHIEPCADYTTRELDLRNEIKGAEELEEIKYEISKSFPMDELRFPKYWSDLSNQDVLVSEFIEGKSLEEGIEEKSLSWDTLLRLFRIHGAYLFGIGTFHGDLHPGNCIIDNDGKFVFIDNGAICHAPSKVNLSLFQFFENLSSNDFDAAFDSLLGLSDSPLKSTNLDNYYKEMNKIYDGFQNQTVGEKSLTRIMMQTVQAAVEKAGADFGEEAFPIIRALMYLDGLVLRTHPDVKLIESMGPYLEEFRLGLDLENKIKNV	not soluble
MGSDKIHHHHHHMAIEHYWDQALERSTAAQLNGALVPLSTELTRIRARQGEPFELRKLKGHPPSHLLARGPKPNPFLPWDPSLEVSEIGMRHVLILNKYPVQKGHMLLITREWAPQHGWLSYDDWEALLSVDQDTKGLWFFNSSPTAGASQPHRHLQLLRRCDDDRSCPRQEWFQSLVNSSPRESCQLTQCCAATARAQNHDAQIHYQAYLTLCEKIGLGNPAENQHPRQPYNLLLTKEWMALILRSREGIAGFSINALGFAGYLLATETSDLDWLNHHGPEALLEGVVKTIQ	not soluble
